In ChEMBL document CHEMBL1275444, “Fitness trade-offs in blaTEM evolution” (2008):

Substrate: CC1(C)S[C@@H]2[C@H](NC(=O)[C@H](N)c3ccccc3)C(=O)N2[C@H]1C(=O)O
Conditions: Escherichia coli
Description: Ratio of Kcat to Km for Escherichia coli Beta-Lactamase TEM-1

B1: Beta-lactamase TEM-1 (Escherichia coli), Q4GY26 (protein)
chain: MSIQHFRVALIPFFAAFCLPVFAHPETLVKVKDAEDQLGARVGYIELDLNSGKILESFRPEERFPMMSTFKVLLCGAVLSRVDAGQEQLGRRIHYSQNDLVEYSPVTEKHLTDGMTVRELCSAAITMSDNTAANLLLTTIGGPKELTAFLHNMGDHVTRLDRWEPELNEAIPNDERDTTMPAAMATTLRKLLTGELLTLASRQQLIDWMEADKVAGPLLRSALPAGWFIADKSGAGERGSRGIIAALGPDGKPSRIVVIYTTGSQATMD
B1 showed a kcat/Km of 2.8 ×10⁷ /M/s.
